Source: paper doi:10.1101/2021.08.02.454712

Target: recombinant Heme Detoxification Protein (PfHDP) (Plasmodium falciparum) (UniProt Q8IL04)
Test: SPR

With “recombinant C-terminal Plasmodium falciparum exportin 2 (Pfexp-2), amino acids 139-285 (domain or fragment)” the Kd was 1100 nM.
